# B1: RIPK4 (parent)
# chain: RERMELLEEAKKMEMAKFRYILPV
# B2: HDAC6 (parent)
# chain: QEGLLDRCVSFQARFAEKEELMLV
# Variants of: B1
# Experiment: protein stability index of a GFP-peptide fusion (GPS, HEK-293T) (PSI 1-6); higher = more stable
# Conditions: c terminus: a fixed tail appended
# 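Further: lentivirally expressed fusions sorted by FACS into six bins by GFP to DsRed ratio, PSI derived from sequencing read proportions per bin multiplied by bin number.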
row,Variant,protein stability index
1,M13Y,2.92
2,M13A,3.1
3,A16E,2.9
4,A16G,3.31
5,I21K,3.45
6,I21H,2.94
7,E5C,2.63
8,L6S,3.19
9,L6N,3.66
10,A10M,3.32
11,A10Q,3.79
12,A10F,3.48
13,Y20L,2.03
14,Y20T,3.4
15,R1K,4.16
16,R1E,3.99
17,R1Y,2.9
18,R1F,3.47
19,P23I,2.09
20,P23S,3.96
21,P23Q,1.69
22,P23R,3.69
23,E9D,3.91
24,E9R,2.4
25,E9V,2.43
26,E2R,2.67
27,K17Q,3.5
28,K17W,2.29

row,Variant,protein stability index
1,K17G,2.94
2,K17P,1.86
3,K17T,3.1
4,R3Y,3.25
5,K11F,2.67
6,K11E,3.97
7,K11Q,3.17
8,M4N,3.94
9,M4A,3.99
10,M4T,3.53
11,L7C,3.94
12,E8H,2.67
13,E8R,3.5
14,E8F,2.68
15,E8M,2.69
16,K12C,3.35
17,K12S,2.75
18,K12A,3.43
19,R19C,2.51
20,R19G,3.03
21,R19E,3.28
22,R19D,3.47
23,E14A,2.78
24,E14P,3.29
25,L22K,4.1
26,L22I,5.51
27,M15K,3.93

# Variants of: B2
# Experiment: as above
# Conditions: c terminus: a fixed tail appended
row,Variant,protein stability index
1,V24T,3.82
2,V24E,4.18
3,V24L,2.21
4,V24H,2.82
5,V24C,2.63
6,V24F,1.85
7,V24N,3.42
8,V24D,4.32
9,V24Y,2.27
10,V24R,3.31
11,V24S,3.59
12,V24A,3.83
13,V24I,2.17
14,V24G,3.62
15,V24Q,3.76
16,V24K,3.74
17,V24P,4.13
18,V24M,2.05
19,V24W,2.21
20,Q12F,1.69
21,Q12E,1.83
22,Q12S,1.6
23,Q12G,2.77
24,Q12I,2.57
25,Q12R,1.58
26,Q12P,2.47

row,Variant,protein stability index
1,Q12T,1.99
2,Q12M,2.02
3,Q12N,2.65
4,Q12A,1.66
5,Q12V,1.14
6,Q12H,2.81
7,Q12C,2.1
8,Q12W,1.08
9,Q12K,2
10,Q12L,1.52
11,Q12D,1.87
12,L21V,2.14
13,L21R,3.06
14,L21S,4.16
15,L21A,4.12
16,L21C,2.18
17,L21Y,2.17
18,L21H,2.45
19,L21D,4.3
20,L21E,3.16
21,L21N,3.78
22,L21F,1.98
23,L21Q,2.88
24,L21T,2.73
25,L21G,3.76
26,L21M,2.14

row,Variant,protein stability index
1,L21K,3.17
2,L21I,1.59
3,L21P,3.29
4,L21W,2.03
5,E20M,1.37
6,E20F,2.98
7,E20P,2.01
8,E20Q,1.86
9,E20I,1.18
10,E20N,1.84
11,E20D,2.32
12,E20Y,1.67
13,E20L,1.62
14,E20G,1.74
15,E20A,2.37
16,E20W,2.02
17,E20H,2.52
18,E20K,1.96
19,E20S,2.24
20,E20T,2.14
21,E20V,1.72
22,E20R,1.69
23,E17Q,2.05
24,E17G,1.95
25,E17Y,1.67
26,E17D,2.14

row,Variant,protein stability index
1,E17L,1.85
2,E17F,1.53
3,E17N,1.68
4,E17I,1.58
5,E17A,2.05
6,E17P,1.73
7,E17H,1.49
8,E17S,1.7
9,E17R,2.03
10,E17T,1.46
11,E17C,1.73
12,E17K,1.72
13,E17M,1.4
14,E17V,1.21
15,E17W,1.02
16,L23T,2.98
17,L23S,3.25
18,L23P,3.45
19,L23Q,2.32
20,L23F,1.96
21,L23N,3.82
22,L23M,1.83
23,L23W,1.89
24,L23I,1.85
25,L23H,2.57
26,L23A,3.4

row,Variant,protein stability index
1,L23E,3.49
2,L23D,4.37
3,L23K,3.55
4,L23V,1.93
5,L23G,3.93
6,L23Y,2.14
7,L23C,2.59
8,L23R,3.35
9,A13G,1.85
10,A13W,2.2
11,A13R,1.93
12,A13V,1.39
13,A13T,2.03
14,A13K,2.47
15,A13I,1.47
16,A13H,2.59
17,A13F,2.2
18,A13E,1.31
19,A13P,2.05
20,A13M,1.89
21,A13N,1.89
22,A13S,1.57
23,A13L,1.38
24,A13Q,2.08
25,A13C,1.4
26,A13Y,1.76

row,Variant,protein stability index
1,A13D,2.44
2,S10Q,2.1
3,S10M,1.64
4,S10W,1.86
5,S10N,1.66
6,S10V,1.45
7,S10F,1.83
8,S10P,1.99
9,S10H,1.75
10,S10Y,2.56
11,S10L,1.89
12,S10E,2.17
13,S10T,2.31
14,S10R,2.37
15,S10K,2.13
16,S10I,1.77
17,S10G,1.82
18,F11T,2.83
19,F11L,1.71
20,F11H,2.37
21,F11A,2.35
22,F11E,3.09
23,F11C,3.17
24,F11W,1.75
25,F11S,2.53
26,F11P,2.73

row,Variant,protein stability index
1,F11K,2.33
2,F11V,2.17
3,F11Q,2.1
4,F11Y,2.03
5,F11D,3.01
6,F11M,2.17
7,F11N,2.93
8,F11I,2
9,F11R,2.66
10,F11G,2.43
11,E19G,2.6
12,E19M,1.58
13,E19H,2.14
14,E19C,1.63
15,E19D,1.76
16,E19V,1.49
17,E19F,1.98
18,E19A,1.76
19,E19K,1.9
20,E19L,1.49
21,E19S,2.14
22,E19P,2.18
23,E19Q,1.67
24,E19I,2
25,E19T,2.87
26,E19Y,1.53

row,Variant,protein stability index
1,E19R,1.84
2,E19N,1.6
3,E19W,2.08
4,M22R,3.14
5,M22L,2.03
6,M22N,3.84
7,M22C,3.01
8,M22A,2.93
9,M22I,1.92
10,M22F,1.88
11,M22P,3.99
12,M22E,4.27
13,M22K,3.31
14,M22V,1.92
15,M22Q,2.81
16,M22Y,2.03
17,M22D,4.03
18,M22H,2.59
19,M22G,3.27
20,M22W,1.95
21,M22S,3.43
22,M22T,3.2
23,K18A,1.98
24,K18H,1.44
25,K18V,1.96
26,K18G,1.63

row,Variant,protein stability index
1,K18D,1.79
2,K18C,2.17
3,K18E,2.38
4,K18W,2.1
5,K18M,2.04
6,K18L,1.49
7,K18Y,1.78
8,K18F,2.51
9,K18Q,2.17
10,K18P,2.07
11,K18T,2.66
12,K18S,1.75
13,K18R,1.45
14,K18I,2.6
15,K18N,1.77
16,F15M,2.16
17,F15Y,1.62
18,F15Q,2.55
19,F15K,3.13
20,F15N,3.04
21,F15E,2.91
22,F15V,2.49
23,F15W,2.36
24,F15R,2.58
25,F15I,1.56
26,F15T,2.81

row,Variant,protein stability index
1,F15H,2.4
2,F15L,2.23
3,F15C,2.36
4,F15A,2.33
5,F15G,2.54
6,F15S,2.9
7,F15P,3.02
8,F15D,3.55
9,A16N,1.97
10,A16M,1.87
11,A16C,1.48
12,A16H,1.41
13,A16D,1.84
14,A16T,1.74
15,A16F,1.75
16,A16V,1.5
17,A16W,1.03
18,A16L,1.07
19,A16S,2.21
20,A16R,2.62
21,A16Q,1.93
22,A16K,2.38
23,A16Y,1.65
24,A16E,2.6
25,A16P,2.11
26,A16I,2.31

row,Variant,protein stability index
1,A16G,1.62
2,R14E,2.57
3,R14H,2.27
4,R14V,1.38
5,R14D,2.54
6,R14F,1.56
7,R14K,2.06
8,R14M,1.66
9,R14G,2.07
10,R14P,1.97
11,R14Q,1.71
12,R14T,2.14
13,R14A,1.4
14,R14Y,2.24
15,R14L,1.7
16,R14N,2.41
17,R14C,2.21
18,R14S,1.9
19,R14I,2.35
